Patent US10106589B2, “Compositions and methods for immunomodulation” (FUNDACIO INSTITUT D'INVESTIGACIO BIOMEDICA DE BELLVITGE …, priority 2011, dated 2018)
“Also recorded” adds a separate entry of the source.

B1: C4BP α7β0: C4BP isoform exclusively composed of 7 α-chains, purified from pooled human plasma (protein, UniProt P04003 49-597, looked up)
C4b-binding protein alpha …: NCGPPPTLSFAAPMDITLTETRFKTGTTLKYTCLPGYVRSHSTQTLTCNSDGEWVYNTFCIYKRCRHPGELRNGQVEIKTDLSFGSQIEFSCSEGFFLIGSTTSRCEVQDRGVGWSHPLPQCEIVKCKPPPDIRNGRHSGEENFYAYGFSVTYSCDPRFSLLGHASISCTVENETIGVWRPSPPTCEKITCRKPDVSHGEMVSGFGPIYNYKDTIVFKCQKGFVLRGSSVIHCDADSKWNPSPPACEPNSCINLPDIPHASWETYPRPTKEDVYVVGTVLRYRCHPGYKPTTDEPTTVICQKNLRWTPYQGCEALCCPEPKLNNGEITQHRKSRPANHCVYFYGDEISFSCHETSRFSAICQGDGTWSPRTPSCGDICNFPPKIAHGHYKQSSSYSFFKEEIIYECDKGYILVGQAKLSCSYSHWSAPAPQCKALCRKPELVNGRLSVDKDQYVEPENVTIQCDSGYGVVGPQSITCSGNRTWYPEVPKCEWETPEGCEQVLTGKRLMQCLPNPEDVKMALEVYKLSLEIEQLELQRDSARQSTLDKEL
B2: C4BP α6β0: polymeric recombinant full-length C4BP of 6 α-chains, expressed in eukaryotic cells (protein, UniProt P04003 49-597, looked up)
C4b-binding protein alpha …: B1 C4b-binding protein alpha …

What was measured:
[1] = tested on: human Mo-DCs; assay: Flow cytometry of cell surface markers on treated, LPS-matured Mo-DCs; details: CCP6-based peptides at 100 μM
[2] = tested on: human Mo-DCs; assay: Apoptosis determination (Annexin V / 7-ADD); type: cell-based; set-up: key: (−) negligible; (+) low; (++) moderate; (+++) high; details: viability; treated and LPS-induced DCs
Source text: Double staining using with the fluorescent dyes Annexin V (Annexin V-PE Apoptosis Detection Kit I, BD Pharmigen, San Diego, Calif.) and 7-amino-actinomycin D (7-ADD) (BD Pharmigen), and flow cytometry analysis, was employed to assess the viability/apoptosis status of C4BP α7β1-, C4BP α7β0-, recC4BP α6β0-, or Factor H-treated and untreated Mo-DCs.

[3] = tested on: human Mo-DCs; set-up: key: (−) negligible; (+) low; (++) moderate; (+++) high; details: Vit D3-treated and LPS-induced DCs; data from Heitger (2011); cited from earlier work
[4] = tested on: human Mo-DCs; assay: Flow cytometry of cell surface markers on treated, LPS-matured Mo-DCs; type: cell-based; set-up: key to HLA-DR / CD40 / CD83 / CD86 / CD14 / CD1a / CCR7: (−) negligible; (+) low; (++) moderate; (+++) high; details: for CD1a expression / CD80 expression / CD83 expression / CD86 expression / expression of surface markers (CD14, HLA-DR, CD40, CD80, CD83, CD86, CD1a): treated throughout differentiation and maturation, LPS-matured; for CD1a expression / CD80 expression / CD83 expression / CD86 expression: dose-dependent; for expression of surface markers (CD14, HLA-DR, CD40, CD80, CD83, CD86, CD1a): vs untreated mDC
Description: Peripheral blood mononuclear cells (PBMCs) were obtained from buffy coat preparations belonging to healthy donors from the Blood and Tissue Bank (Barcelona, Spain) after Ficoll-Paque™ density centrifugation (GE Healthcare Bio-Sciences AB; Uppsala, Sweden). Monocytes were purified by two different methods: 1) Cells were plated at 1×10^6 cells/ml in 60 mm culture plates (Corning, Spain) in RPMI without serum and allowed to adhere for 2 h at 37° C. in 5% CO2. The non-adherent cells were removed by washing in PBS. […] 2) Cells were purified using colloidal super-paramagnetic microbeads conjugated with monoclonal mouse anti-human CD14 antibodies (MACS, Miltenyi Biotec, Auburn, Calif., or EasySep® Positive Selection Cocktail, StemCell Technologies, Grenoble, France). The purity of CD14^+ cells was tested by CD14 staining and flow cytometry analysis (>90% CD14^+ cells). Monocyte-derived DCs (Mo-DCs) were generated supplementing the monocyte cultures with complete RPMI 1640 medium plus GM-CSF (800 UI/ml) and IL-4 (500 UI/ml) (both from Gentaur, Kampenhout, Belgium) at day 0 and day 3 of culture. For DC maturation, at day 5 iDCs were further stimulated for 48 h with 5 μg/ml LPS (Escherichia coli 055.B5, Sigma L2880, Copenhagen, Denmark).
Cell surface phenotypes were analyzed using the following monoclonal antibodies: FITC-conjugated anti-HLA-DR (Immu-357), FITC-conjugated anti-CD83 (HB15a), FITC-conjugated anti-CD14 (RMO52), PE-conjugated anti-CD40 (MAB89), PE-conjugated anti-CD1a (BL6), PE-conjugated anti-CD80 (MAB104), PE-conjugated anti-CD86 (HA5.2B7) (all from Beckman-Coulter), Alexa Fluor 488-conjugated anti-CCR7 (TG8/CCR7, Biolegend, San Diego, Calif.), and the respective isotype controls from the same commercial sources. After washing with PBS, cells were subsequently stained with 3 μl MoAb/10^5 cells in 100 μl of FACS buffer (PBS containing 1% BSA and 0.1% sodium azide) for 20 min at room temp. Stained cells were analysed using a FACScalibur (Becton Dickinson). Mo-DCs were gated according to forward scatter (FSC) and side scatter (SSC) parameters. The results were analysed using CellQuestPro software (Becton Dickinson).
Both the different C4BP isoforms (α7β1, α7β0 and α6β0), and Factor H were added at 2, 5 and 10 μg/ml throughout Mo-DC differentiation, maturation, or both. Namely, for the differentiation assays the proteins were added at day 0 and replenished at day 3. For the maturation assays the proteins were added at day 5, either alone or combined with LPS. Finally, for the differentiation plus maturation assays the proteins were added at days 0, 3 and 5 (at the last time point, combined with LPS).

[5] = tested on: allogeneic CD3+ T cells; assay: Mixed leukocyte reaction ([3H]-thymidine incorporation); type: cell-based, human; set-up: key to Alloproliferation (T CD3^+): (−) negligible; (+) low; (++) moderate; (+++) high
Description: CD3^+ T cells (10^5/well) and C4BP-treated (α7β1 and α7β0), or Factor H-treated, and LPS-activated Mo-DCs were seeded in a 96-well round-bottom plate at various DC:T cell ratios (1:40, 1:80 and 1:160) and cultured in X-VIVO 15 medium (Biowittaker, Walkersville, Md.) supplemented with 100 μg/ml of streptomycin, 100 IU/ml of penicillin and 2 mM L-glutamine (all from Invitrogen) plus 2% Human AB Serum. Allospecific proliferation was measured after 5 days of incubation. At day 4, the […] [^3H]-thymidine (1 μCi/well, Perkin Elmer, Boston, Mass.) was added, followed by incubation for another 16 h. Labeled cells were then harvested onto glass-fiber filters with a Filtermate Harvester (Packard, Meriden, Conn.), and the T cell proliferation rate was determined by the amount of [^3H]-thymidine incorporation, which was measured in a TopCount NXT counter (Packard). Results are reported as the mean cpm±SD of thymidine incorporation in quadruplicate culture wells.

[6] = tested on: LPS-matured human Mo-DCs; set-up: key: (−) negligible; (+) low; (++) moderate; (+++) high; details: cytokine; Vit D3-treated and LPS-induced DCs; data from Naranjo-Gomez et al. (2011); cited from earlier work
[7] = tested on: human Mo-DCs; assay: Scanning electron microscopy of Mo-DC surface morphology; type: cell-based; details: SEM after 48 h LPS maturation
Description: Monocytes were seeded on glass slides covered with either poly-L-lysine (25 μg/ml) or fibronectin (42 μg/ml), cultured for 5 days in complete RPMI medium supplemented with 800 U/ml GM-CSF, 500 U/ml IL-4, and the C4BP isoforms α7β1, α7β0, or Factor H (10 μg/ml), and further stimulated with LPS for 48 hours in the same medium. The resulting DCs were fixed in 1% paraformaldehyde and 1.25% glutaraldehyde in cacodylate buffer for 2 h. Finally, the cells were post-fixed in 1% OsO4, and dehydrated with graded series of ethanol followed by acetone. After dehydration the cells were dried in a critical-point dryer and coated with gold before observation by scanning electron microscopy (Zeiss DSM940A).

[8] = tested on: human Mo-DCs; assay: Quantitative RT-PCR of CCR7, IDO, BIC-1, SOD2 in Mo-DCs; type: cell-based; details: RT-qPCR; pretreated, LPS-matured Mo-DCs
Description: Mo-DCs (10^6/condition) were harvested at day 7 and the mRNA was extracted using the RNeasy RNA Isolation kit (Qiagen) and incubated with RNase-free DNase I (Ambion, Austin, Tex.) according to the manufacturer's protocol. A two-step real-time RT-PCR technique was used to determine the relative mRNA levels of human CCR7, BIC-1, IDO and SOD2. Reverse transcription reactions were performed with 500 ng of total RNA using the Omniscript RT kit (Qiagen). Quantification of mRNA levels was performed by real-time polymerase chain reaction (PCR) with the use of the LightCycler technology (Roche Molecular Biochemicals, Indianapolis, Ind.). The following primers were used: CCR7-f (5′-TGGGCATCTGGATACTAGC-3′) (SEQ ID NO:6), CCR7-r (5′-AAGAAAGGGTTGACGCAGC-3′) (SEQ ID NO:7); IDO-f (5′-[…]-3′) (SEQ ID NO:8); IDO-r (5′-[…]-3′) (SEQ ID NO:9); BIC-1-f (5′-[…]-3′) (SEQ ID NO:10), BIC-1-r (5′-[…]-3′) (SEQ ID NO:11); SOD2-f (5′-GACAAACCTCAGCCCTAAC-3′) (SEQ ID NO:12), SOD2-r (5′-[…]-3′) (SEQ ID NO:13), yielding products of 435, 227, 296 bp, and 248 bp, respectively. These gene-specific primer pairs were designed using Oligo 4.0 and Primer 3 software packages (MBI, Cascade, Colo.) and selected to prevent primer-dimer formation.
All samples were normalized with the use of the following primer set for the constitutively expressed human cyclophilin gene: CypA-f (5′-[…]-3′) (SEQ ID NO:14) and CypA-r (5′-CACCACATGCTTGCCATCC-3′) (SEQ ID NO:15) (Pluvinet R. et al., 2004, Blood. 104: 3642-3646). All primers were purchased from Bonsai Technologies (Copenhagen, Denmark).
PCR amplifications were performed in a 20 μl volume containing 2 μl ready-to-use reaction mix, 10×DNA Master SYBR Green I (Roche Molecular Biochemicals); MgCl2 (3 mM for CCR7; 4 mM for BIC-1 and SOD2, and 5 mM for IDO); 0.15 μM of each primer; 5% dimethyl sulfoxide (DMSO); and 75 ng cDNA as template. The amplification program used an initial denaturation at 95° C. for 10 min, followed by 45 cycles: 95° C. for 1 sec; 58° C. (CCR7 and SOD2)/60° C. (BIC-1 and IDO) for 5 sec; 72° C. for 10 sec.

[9] = surface marker, treated and LPS-induced DCs

Molecule | CD83 upregulation on LPS-matured Mo-DCs [1] | surface morphology of Mo-DCs [7] | CD1a expression [4] | CD80 expression [4] | CD83 expression [4] | CD86 expression [4] | expression of surface markers (CD14, HLA-DR, CD40, CD80, CD83, CD86, CD1a) [4] | BIC-1 transcript level [8] | CCR7 transcript level [8] | IDO transcript level [8] | also measured
Ac-HRKSRPANHSVYFYGDEISFSSHETSRFSA-NH2 [PS6-02] | seemed to prevent CD83 upregulation |  |  |  |  |  |  |  |  |  | toxicity to the DCs [1]: toxic
PS6-04: SEQ ID NO:5 ITQHRK SRPANHSV, 14-mer CCP6-derived peptide (ITQHRKSRPANHSV; PS6-04) | comparable effect than its C4BP α6β0 counterpart |  |  |  |  |  |  |  |  |  | 
PS6-03: SEQ ID NO:4 EISFSSH ETSRFSAISQ GDGTWSPRTP SSG, CCP6-derived peptide (EISFSSHETSRFSAISQGDGTWSPRTPSSG; PS6-03) | seemed to prevent CD83 upregulation |  |  |  |  |  |  |  |  |  | 
C=C1/C(=C\C=C2/CCC[C@]3(C)[C@@H]([C@H](C)CCCC(C)(C)O)CC[C@@H]23)C[C@@H](O)C[C@@H]1O [Vit D3, calcitriol, reference compound] |  |  |  |  |  |  |  |  |  |  | Apoptosis after treatment [2]: +; IDO [3]: +++ (**); CCR7 [4, 9]: ++; CD1a [4, 9]: −; CD14 [4, 9]: +; CD40 [4, 9]: +; CD83 [4, 9]: +; CD86 [4, 9]: −; HLA-DR [4, 9]: +; Alloproliferation (T CD3^+) ([5]; functional assay, treated and LPS-induced DCs): −; IL-10 [6]: ++ (*); IL-12 [6]: − (*)
B1 |  | absence of long dendritic projections; also recorded: reversed the “porcupine like” DC morphology | significantly down-regulated | significantly down-regulated | significantly down-regulated | significantly down-regulated | inhibit up-regulation | significantly down-regulated | significantly down-regulated | significantly down-regulated | allogeneic T cell proliferation ([5]; Mo-DCs pre-incubated and matured with LPS, DC:T 1:40, 1:80, 1:160, 5 days): significantly less T cell proliferation
B2 |  | reversed the “porcupine like” DC morphology | significantly down-regulated | significantly down-regulated | significantly down-regulated | significantly down-regulated | inhibit up-regulation | significantly down-regulated | significantly down-regulated | significantly down-regulated | 
